# Measured values taken from IntAct's records for PubMed 27995898.
# B1: S-adenosylhomocysteine hydrolase-like protein 1 (Homo sapiens), O43865 (parent)
# chain: MSMPDAMPLPGVGEELKQAKEIEDAEKYSFMATVTKAPKKQIQFADDMQEFTKFPTKTGRRSLSRSISQSSTDSYSSAASYTDSSDDEVSPREKQQTNSKGSSNFCVKNIKQAEFGRREIEIAEQDMSALISLRKRAQGEKPLAGAKIVGCTHITAQTAVLIETLCALGAQCRWSACNIYSTQNEVAAALAEAGVAVFAWKGESEDDFWWCIDRCVNMDGWQANMILDDGGDLTHWVYKKYPNVFKKIRGIVEESVTGVHRLYQLSKAGKLCVPAMNVNDSVTKQKFDNLYCCRESILDGLKRTTDVMFGGKQVVVCGYGEVGKGCCAALKALGAIVYITEIDPICALQACMDGFRVVKLNEVIRQVDVVITCTGNKNVVTREHLDRMKNSCIVCNMGHSNTEIDVTSLRTPELTWERVRSQVDHVIWPDGKRVVLLAEGRLLNLSCSTVPTFVLSITATTQALALIELYNAPEGRYKQDVYLLPKKMDEYVASLHLPSFDAHLTELTDDQAKYLGLNKNGPFKPNYYRY
# partner: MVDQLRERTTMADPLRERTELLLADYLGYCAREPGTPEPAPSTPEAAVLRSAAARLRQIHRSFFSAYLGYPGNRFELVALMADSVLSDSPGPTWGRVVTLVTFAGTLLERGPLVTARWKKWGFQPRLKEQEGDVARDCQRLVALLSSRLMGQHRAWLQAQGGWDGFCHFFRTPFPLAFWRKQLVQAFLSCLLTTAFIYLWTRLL
# Variants of: B1
# Details: with BCL2L10, Q9HD36
row,effect of a mutation on the interaction,Variant
1,with no effect,S68A
